Experimental data from article PMC3693578 (Molecular cell, 2012).

Target: T1, TSC1 (hamartin), endogenous human (human (endogenous in HeLa), UniProt Q92574 1-1164)
T1 sequence (looked up): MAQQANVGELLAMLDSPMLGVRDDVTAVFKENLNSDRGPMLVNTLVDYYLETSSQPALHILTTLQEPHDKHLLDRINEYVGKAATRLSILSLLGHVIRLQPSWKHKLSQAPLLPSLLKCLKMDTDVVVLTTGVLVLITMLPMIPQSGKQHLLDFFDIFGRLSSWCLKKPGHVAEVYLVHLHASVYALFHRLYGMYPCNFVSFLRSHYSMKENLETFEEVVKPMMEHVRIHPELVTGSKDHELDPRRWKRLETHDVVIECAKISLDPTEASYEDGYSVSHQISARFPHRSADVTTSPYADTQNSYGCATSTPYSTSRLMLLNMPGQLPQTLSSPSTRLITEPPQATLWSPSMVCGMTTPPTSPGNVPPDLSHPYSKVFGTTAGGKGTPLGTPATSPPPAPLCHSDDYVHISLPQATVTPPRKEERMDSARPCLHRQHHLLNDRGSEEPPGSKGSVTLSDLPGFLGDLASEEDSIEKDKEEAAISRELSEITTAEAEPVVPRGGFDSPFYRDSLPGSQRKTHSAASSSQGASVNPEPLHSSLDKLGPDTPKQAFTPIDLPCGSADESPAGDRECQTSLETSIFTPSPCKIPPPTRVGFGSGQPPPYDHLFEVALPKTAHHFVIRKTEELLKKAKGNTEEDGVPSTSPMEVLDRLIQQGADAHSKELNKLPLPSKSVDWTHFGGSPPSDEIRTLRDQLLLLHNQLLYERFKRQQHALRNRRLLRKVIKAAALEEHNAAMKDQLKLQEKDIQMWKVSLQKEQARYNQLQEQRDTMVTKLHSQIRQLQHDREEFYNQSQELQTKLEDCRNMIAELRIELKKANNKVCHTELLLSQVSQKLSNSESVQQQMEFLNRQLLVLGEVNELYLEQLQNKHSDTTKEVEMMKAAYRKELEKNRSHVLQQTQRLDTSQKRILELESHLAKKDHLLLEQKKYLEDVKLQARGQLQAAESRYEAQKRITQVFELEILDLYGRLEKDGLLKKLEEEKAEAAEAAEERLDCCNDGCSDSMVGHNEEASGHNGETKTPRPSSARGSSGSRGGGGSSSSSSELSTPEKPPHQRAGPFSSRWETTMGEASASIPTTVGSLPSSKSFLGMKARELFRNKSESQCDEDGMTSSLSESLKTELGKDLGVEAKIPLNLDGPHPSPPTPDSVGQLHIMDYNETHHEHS
Test: affinity purification with mass spectrometry

- stoichiometry N: ~1
B1: TSC2 (tuberin), endogenous human (natural protein)
chain: not shown
